In this test the target is AcrIIA22 (wild type, thrombin-cleaved) (Clostridial genus CAG-217 (human gut metagenome; taxonomy inferred by the paper)). Kind of test: SEC. (SEC sorts molecules by how far they enter the pores of the column.)

Where “and” joins values, the source holds several entries; their conditions need not be identical. Equal values may be shown once.

As to “AcrIIA22 (wild type, thrombin-cleaved) (natural protein)”, the stoichiometry N (as a rule, a count of units in the complex or per binding partner) is 4 and 5.

(Values after paper doi:10.1101/2020.09.28.317578.)
